The text below walks through data of patent publication US20140221622A1 (AbbVie / Abbott, published 2014).

The target in experiment [1] is T1, c-Met on tumor cell lines (A549, IM-95, SNU-5, SNU-620) (UniProt P08581 25-1390, limits assumed). As to the kind of experiment: cell-based or functional assay.
For experiment [2], the target named is T2, Neonatal Fc receptor (FcRn) on CHO-FcRnGPI cells.
T2 construct: whole, on cells; nothing more is said; also called FcRn receptors
As to the kind of experiment: flow cytometry on CHO-FcRnGPI cells, pH 6.4. (In flow cytometry, cells or beads pass a laser one at a time.)
Description: CHO-FcRnGPI cells (Stable FcRn receptor expressor) and CHO-pBudl l cells (non-FcRn expressor) were aliquotted into 96-well plates at 1×10⁵ cells/well. Cells were resuspended in 150 μl FACS buffer. […] 30 μl of diluted antibody or half-Ig binding protein was added to each well and incubated on ice for 1 hour. Following 2 washes with FACS buffer, 50 μl of secondary antibody R-phycoerythrin-conjugated AfiniPure F(ab′)2 Fragment goat anti-human IgG (Jackson ImmunoResearch, West Grove, Pa.) diluted in FACS buffer pH 6.4 or pH7.4 was added. The mixture was incubated for 30 min on ice. The cells were resuspended in 100 μl PBS with 1% FBS (Invitrogen, Carlsbad, Calif.) and 2 μg/ml propidium iodide (Invitrogen, Carlsbad, Calif.) of the corresponding pH. Final FACS data were acquired on a FACScan (Becton Dickinson, Franklin Lakes, N.J.).

In experiment [3] the target is T3, rhcMetECD (cMet extracellular domain) (human, UniProt P08581 25-932).
T3 construct: extracellular domain; also called cMet antigen
T3 sequence (P08581 25-932): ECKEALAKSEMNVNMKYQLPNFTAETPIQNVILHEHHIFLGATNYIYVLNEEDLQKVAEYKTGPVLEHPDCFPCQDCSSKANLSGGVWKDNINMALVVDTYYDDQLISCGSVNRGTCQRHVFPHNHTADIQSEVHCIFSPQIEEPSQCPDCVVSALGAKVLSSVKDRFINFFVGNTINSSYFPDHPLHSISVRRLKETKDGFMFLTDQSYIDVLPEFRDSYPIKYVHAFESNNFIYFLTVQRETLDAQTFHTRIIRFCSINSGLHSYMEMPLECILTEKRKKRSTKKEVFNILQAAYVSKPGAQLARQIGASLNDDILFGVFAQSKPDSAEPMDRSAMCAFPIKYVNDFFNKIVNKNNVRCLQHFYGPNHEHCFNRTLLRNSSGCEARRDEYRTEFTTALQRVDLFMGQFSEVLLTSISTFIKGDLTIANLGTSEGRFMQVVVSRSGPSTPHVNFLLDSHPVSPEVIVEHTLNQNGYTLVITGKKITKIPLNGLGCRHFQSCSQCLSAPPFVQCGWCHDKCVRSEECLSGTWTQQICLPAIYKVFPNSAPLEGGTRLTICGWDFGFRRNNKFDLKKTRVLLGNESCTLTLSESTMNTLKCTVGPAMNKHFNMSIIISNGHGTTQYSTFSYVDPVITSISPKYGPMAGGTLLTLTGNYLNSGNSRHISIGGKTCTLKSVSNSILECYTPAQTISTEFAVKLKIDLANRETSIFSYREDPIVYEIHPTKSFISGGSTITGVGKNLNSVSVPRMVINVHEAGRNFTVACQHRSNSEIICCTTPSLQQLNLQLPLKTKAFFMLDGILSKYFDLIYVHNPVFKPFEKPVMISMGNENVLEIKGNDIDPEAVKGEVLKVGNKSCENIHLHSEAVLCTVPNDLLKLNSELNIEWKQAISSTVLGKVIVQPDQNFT
As to the kind of experiment: SPR (Biacore 3000), apparent stoichiometry at saturating rhcMetECD. (SPR reads the build-up and loss of mass on a sensor chip optically.)
Excerpt: Unreacted moieties on the biosensor surface were blocked with ethanolamine. Modified carboxymethyl dextran surface in flowcell 2 and 4 was used as a reaction surface. Unmodified carboxymethyl dextran without goat anti-human IgG in flow cell 1 and 3 was used as the reference surface. For kinetic analysis, rate equations derived from the 1:1 Langmuir binding model were fitted simultaneously to association and dissociation phases of all ten injections (using global fit analysis) using the Bioevaluation 4.0.1 software. Purified MBody samples were diluted in HEPES-buffered saline for capture across goat anti-human IgG Fc specific reaction surfaces and injected over reaction matrices at a flow rate of 5 ml/min. […] The equilibrium dissociation constant (M) of the reaction between MBody and rhcMetECD was then calculated from the kinetic rate constants by the following formula: KD=koff/kon. Aliquots of rhcMetECD samples were also simultaneously injected over a blank reference and reaction CM surface to record and subtract any nonspecific binding background to eliminate the majority of the refractive index change and injection noise. […] The apparent stoichiometry of the captured MBody-rhcMetECD complex was calculated under saturating binding conditions (steady-state equilibrium) using the following formula:

Experiment [4] has as its target T4, biotin-labeled cMet (UniProt P08581 25-932, limits assumed, biotin label (site not stated)).
T4 construct: also called cMet antigen
As to the kind of experiment: ELISA: antibody captured on anti-IgG Fc coat, bound biotin-labeled cMet detected with streptavidin-HRP.

In experiment [5] the target is T4, biotin-labeled cMet. The experiment is described as above. The source holds these as a separate data set.
Description: (§1) cMet binding ELISA was performed to characterize the antigen binding property of cMet antibodies. 96-well ELISA plates were coated with 100 μl/well 5 μg/ml anti-mouse IgG Fc in PBS at 4° C. overnight. After 3 washes with PBS/0.05% Tween®20, the plates were blocked with 5% milk in PBS for 1 hour at room temperature. After another 3 washes with PBS/0.05% Tween®20, 100 μl cMet antibody was added to each well followed by an incubation of 1 hour at room temperature. Binding biotin-labeled cMet was detected by Streptavidin-horseradish peroxidase (KPL, Gaithersburg, Md.) and tetramethylbenzidine (Thermo Scientific, Rockford, Ill.). Final absorbances were acquired at 450 nm after stopping the reactions with 2 mol/L H₂SO₄. […] The terms EC₅₀ and IC₅₀ may be used interchangeably in this Example to reflect the concentration of the antibody which induces a response halfway between the baseline and the maximum after a specified exposure time.
Experiment [6] deals with T3, rhcMetECD (cMet extracellular domain). Nature of the experiment: SPR (Biacore 3000), binding protein captured on anti-human IgG Fc, rhcMetECD injected, 1:1 Langmuir fit, 25 C.
Description: The kinetics of MBody binding to rhcMetECD (extracellular domain) was determined by surface plasmon resonance-based measurements with a Biacore 3000 instrument (Biacore AB, Uppsala, Sweden) using HBS-EP (10 mM HEPES, pH 7.4, 150 mM NaCl, 3 mM EDTA, and 0.005% surfactant P20) at 25° C. […] Approximately, 5000 RU of goat anti-human IgG Fcγ fragment specific polyclonal antibody (Pierce Biotechnology Inc, Rockford, Ill.) diluted in 10 mM sodium acetate (pH 4.5) was directly immobilized across a CM5 research grade biosensor chip using a standard amine coupling kit according to manufacturer's instructions and procedures at 25 mg/ml. Unreacted moieties on the biosensor surface were blocked with ethanolamine. Modified carboxymethyl dextran surface in flowcell 2 and 4 was used as a reaction surface. Unmodified carboxymethyl dextran without goat anti-human IgG in flow cell 1 and 3 was used as the reference surface. For kinetic analysis, rate equations derived from the 1:1 Langmuir binding model were fitted simultaneously to association and dissociation phases of all ten injections (using global fit analysis) using the Bioevaluation 4.0.1 software. Purified MBody samples were diluted in HEPES-buffered saline for capture across goat anti-human IgG Fc specific reaction surfaces and injected over reaction matrices at a flow rate of 5 ml/min. […] The equilibrium dissociation constant (M) of the reaction between MBody and rhcMetECD was then calculated from the kinetic rate constants by the following formula: KD=koff/kon. Aliquots of rhcMetECD samples were also simultaneously injected over a blank reference and reaction CM surface to record and subtract any nonspecific binding background to eliminate the majority of the refractive index change and injection noise. Surfaces were regenerated with two subsequent 25 ml injections of 10 mM Glycine (pH 1.5) at a flow rate of 5 ml/min.
The target of experiment [7] is T5, CD40 on CD40-overexpressing HEK 293 cells (UniProt P25942 21-277, limits assumed).
T5 construct: whole, on cells
T5 sequence (P25942 21-277 limits assumed): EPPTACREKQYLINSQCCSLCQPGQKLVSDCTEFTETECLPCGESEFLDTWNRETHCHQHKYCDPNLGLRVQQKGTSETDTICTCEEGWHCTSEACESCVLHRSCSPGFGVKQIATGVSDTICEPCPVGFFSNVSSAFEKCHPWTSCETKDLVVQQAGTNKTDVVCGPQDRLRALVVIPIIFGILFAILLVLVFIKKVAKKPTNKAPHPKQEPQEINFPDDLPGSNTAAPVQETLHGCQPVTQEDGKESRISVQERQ
Nature of the experiment: flow cytometry on CD40-overexpressing HEK 293 cells, APC anti-human Fc.
Description: First, the CD40-overexpressing HEK 293 cells were stained with hIgG1 or testing material at a range of 0.01 μg/ml to 10 μg/ml. Followed by 30 min incubation on ice with an APC-conjugated anti-human Fc antibody. Cells then are washed twice and resuspended in PBS/FBS. Fluorescence was measured using a Becton Dickinson FACSCalibur (Becton Dickinson, San Jose, Calif.).
The binding of proteins were examined by FACS.

Experiment [8] deals with EGFR on EGFR-expressing target cells (UniProt P00533 25-1210, limits assumed). Nature of the experiment: cell-based or functional assay.
A further experiment addresses T6, CD3 on Jurkat cells (UniProt P07766 23-207).
T6 construct: whole, on cells; CD3 is a multi-chain complex; also called CD3 antigen
Nature of the experiment: flow cytometry on Jurkat cells, Alexa Fluor 488 anti-human IgG Fc.

The target in experiment [9] is T1, c-Met on tumor cell lines (A549, IM-95, …). As to the kind of experiment: cell-based or functional assay. The source holds these as a separate data set.
For experiment [10], the target named is T4, biotin-labeled cMet. Nature of the experiment: c-Met binding ELISA by the method of Example 1.3. (In general: An ELISA detects its analyte on a solid surface through an enzyme-linked reagent.)
Description: as §1

Substitutions are numbered along the chain they refer to.

T1 sequence (P08581 25-1390 limits assumed): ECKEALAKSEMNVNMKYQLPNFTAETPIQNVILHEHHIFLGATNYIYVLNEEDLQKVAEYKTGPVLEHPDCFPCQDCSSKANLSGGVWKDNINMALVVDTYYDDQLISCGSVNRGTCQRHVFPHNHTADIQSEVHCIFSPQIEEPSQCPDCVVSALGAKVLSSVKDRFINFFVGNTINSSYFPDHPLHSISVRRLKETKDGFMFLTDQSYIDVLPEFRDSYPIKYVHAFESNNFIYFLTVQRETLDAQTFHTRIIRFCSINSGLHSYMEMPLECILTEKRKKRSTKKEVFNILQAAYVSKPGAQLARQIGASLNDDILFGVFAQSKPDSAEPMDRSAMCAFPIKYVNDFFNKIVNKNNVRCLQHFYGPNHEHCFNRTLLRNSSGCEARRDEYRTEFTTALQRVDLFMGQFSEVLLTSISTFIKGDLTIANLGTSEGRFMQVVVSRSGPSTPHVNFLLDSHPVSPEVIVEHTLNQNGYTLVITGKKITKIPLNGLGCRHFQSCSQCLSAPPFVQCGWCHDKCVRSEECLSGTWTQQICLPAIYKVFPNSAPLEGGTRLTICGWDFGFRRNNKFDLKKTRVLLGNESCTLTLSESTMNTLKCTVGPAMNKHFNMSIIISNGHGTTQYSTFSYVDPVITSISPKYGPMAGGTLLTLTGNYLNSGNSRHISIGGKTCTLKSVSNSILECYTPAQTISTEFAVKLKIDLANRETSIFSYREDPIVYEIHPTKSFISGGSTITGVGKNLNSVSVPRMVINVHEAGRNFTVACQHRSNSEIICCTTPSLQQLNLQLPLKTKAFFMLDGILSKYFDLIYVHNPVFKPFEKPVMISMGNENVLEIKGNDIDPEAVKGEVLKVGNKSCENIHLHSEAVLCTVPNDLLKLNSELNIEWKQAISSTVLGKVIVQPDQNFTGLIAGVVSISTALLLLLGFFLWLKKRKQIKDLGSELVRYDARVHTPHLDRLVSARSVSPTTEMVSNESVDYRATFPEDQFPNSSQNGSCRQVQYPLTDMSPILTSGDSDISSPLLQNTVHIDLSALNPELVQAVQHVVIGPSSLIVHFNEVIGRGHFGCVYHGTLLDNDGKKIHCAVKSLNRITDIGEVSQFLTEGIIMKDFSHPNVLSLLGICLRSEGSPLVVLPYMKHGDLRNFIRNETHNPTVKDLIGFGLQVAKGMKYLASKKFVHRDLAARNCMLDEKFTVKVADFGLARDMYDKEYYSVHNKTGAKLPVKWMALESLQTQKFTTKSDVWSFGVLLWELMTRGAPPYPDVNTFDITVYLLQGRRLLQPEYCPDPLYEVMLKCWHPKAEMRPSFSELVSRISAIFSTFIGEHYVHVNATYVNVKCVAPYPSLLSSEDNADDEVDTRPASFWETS
T4 sequence (P08581 25-932 limits assumed): as the sequence (P08581 25-932) above
T2 sequence (P55899 24-297, chain 1 of 2): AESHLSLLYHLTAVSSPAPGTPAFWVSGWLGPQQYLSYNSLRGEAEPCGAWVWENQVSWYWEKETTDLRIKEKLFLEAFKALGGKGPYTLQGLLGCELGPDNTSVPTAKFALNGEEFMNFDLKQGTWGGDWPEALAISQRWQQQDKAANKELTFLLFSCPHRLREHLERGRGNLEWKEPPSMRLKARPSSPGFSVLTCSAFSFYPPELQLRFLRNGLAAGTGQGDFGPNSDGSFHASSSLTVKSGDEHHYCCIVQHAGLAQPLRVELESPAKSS
T2 sequence (P61769 21-119, chain 2 of 2, further chain): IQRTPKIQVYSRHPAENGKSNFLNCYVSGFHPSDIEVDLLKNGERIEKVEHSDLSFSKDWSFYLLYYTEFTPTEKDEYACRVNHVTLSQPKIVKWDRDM
Description for CD3 on Jurkat cells: 0.5×10⁶ of Jurkat or NCI-N87 cells were washed with FACS buffer (1% BSA/PBS) and resuspended in 50 ul of FACS buffer. mAbs or Fab-bodies were prepared in 50 ul of FACS buffer and mixed with cells and incubated at 4° C. for 1 hr.

B1: cMet Ig (anti-cMet antibody, 5D5 variable domains on human Cg1/Ck) (antibody, human IgG1, kappa)
heavy: not shown
light: DFMMSQSPSSLTVSVGEKVTVSCKSSQSLLYTSSQKNYLAWYQQKPGQSPKLLIYWASTRESGVPDRFTGSGSGTDFTLTITSVKADDLAVYYCQQYYAYPWTFGGGTKLELKRTVAAPSVFIFPPSDEQLKSGTASVVCLLNNFYPREAKVQWKVDNALQSGNSQESVTEQDSKDSTYSLSSTLTLSKADYEKHKVYACEVTHQGLSSPVTKSFNRGEC
notes: VH/VL cloned from hybridoma HB-11895 (5D5.11.6) into pHybE-hCg1,z,non-a and pHybE-hCk; also called cMet mAb; parental cMet mAb
The term EC50 denotes the concentration needed to bring the measured effect to its halfway point. Low readings indicate greater potency, high ones weaker potency. As a reminder, the Kd is the constant that tells how readily two partners part at equilibrium. Read a high Kd as weaker binding. One may read the koff as a measure of how fast the partners let go of each other. Low readings indicate a long-lived complex, high ones a short-lived complex. One may read the kon as a measure of how fast the partners come together. Low readings indicate slow association, high ones fast association. With B1, the “Inhibition of IM95 Proliferation, EC50” value in experiment [1] was 0.17 µg/mL. The EC50 in experiment [2] came out at 53.3 µg/mL; with biotin-labeled cMet [4], 0.3 nM; in the experiment with biotin-labeled cMet [5] it was 0.35 nM. For the same molecule, the Stoichiometry in experiment [3] came to 1.51. This molecule also displayed a Kd in experiment [6] of 2.67 nM. Further, the dissociation rate constant (koff) in experiment [6] came out at 0.000214 s⁻¹. The same molecule yielded an on-rate constant (kon) in experiment [6] of 80300 M⁻¹ s⁻¹.

B2: cMet mAb KH (cMet mAb with knobs-into-holes mutations) (antibody, human IgG1, kappa)
heavy 1: not shown
heavy 2: not shown
light: B1 light
For B2, in [2], the EC50 came to 44.4 µg/mL. Also, the Stoichiometry in experiment [3] was 1.53. Moreover, in experiment [6], the affinity, expressed as Kd, was 2.08 nM; the koff worked out at 0.000195 s⁻¹; the kon turned out to be 93600 M⁻¹ s⁻¹.

B3: cMet AA6 KH MBody (antibody, human IgG1, kappa)
heavy 1: not shown
heavy 2: not shown
light: B1 light
As for B3, the “Inhibition of IM95 Proliferation, EC50” value in [1] was 1.86 µg/mL. For the same molecule, the concentration giving a half-maximal response (EC50) in experiment [2] worked out at 51.1 µg/mL.

B4: cMet AA2 HK MBody (antibody, human IgG1, kappa)
heavy 1: not shown
heavy 2: not shown
light: B1 light
For B4, the “Inhibition of IM95 Proliferation, EC50” value in [1] came out at 0.23 µg/mL. In experiment [2], the half-maximal effective concentration (EC50) was 31.5 µg/mL.

B5: cMet AA3 KH MBody (antibody, human IgG1, kappa)
heavy 1: not shown
heavy 2: not shown
light: B1 light
In the case of B5, in [1], the “Inhibition of IM95 Proliferation, EC50” value was determined as 2.14 µg/mL. In addition, a half-maximal response in experiment [2] (EC50) required 38 µg/mL.

B6: cMet AA3 HK MBody (antibody, human IgG1, kappa)
heavy 1: not shown
heavy 2: not shown
light: B1 light
For B6, the “Inhibition of IM95 Proliferation, EC50” value in [1] was determined as 1.6 µg/mL. For the same molecule, a half-maximal effect in experiment [2] (EC50) was put at 34.8 µg/mL.

B7: cMet AA4 Ig (antibody, human IgG1, kappa, V domains shown)
VH: QVQLQQSGPELVRPGASVKMSCRASGYTFTSYWLHWVKQRPGQGLEWIGMIDPSNSDTRFNPNFKDKATLNVDRSSNTAYMLLSSLTSADSAVYYCATYGSYAAPLDYWGQGTSVTVSS
VL: DFMMSQSPSSLTVSVGEKVTVSCKSSQSLLYTSSQKNYLAWYQQKPGQSPKLLIYWASTRESGVPDRFTGSGSGTDFTLTITSVKADDLAVYYCQQYYAYPWTFGGGTKLELKR
notes: HC CDR3 alanine-scanning mutant paired with the common cMet LC; also called Anti-cMet-AA4
In the experiment with biotin-labeled cMet [4], B7 showed an EC50 of 1.24 nM. That is a single-digit nanomolar value.

B8: cMet AA6 HK MBody (antibody, human IgG1, kappa)
heavy 1: not shown
heavy 2: not shown
light: B1 light
As for B8, the “Inhibition of IM95 Proliferation, EC50” value in experiment [1] was 2.73 µg/mL. This molecule gave a 50% effective concentration (EC50) in experiment [2] of 47.1 µg/mL.

B9: cMet AA1 Ig (antibody, human IgG1, kappa, V domains shown)
VH: B7 VH with T98A, A103V, A104S
VL: B7 VL
notes: HC CDR3 alanine-scanning mutant paired with the common cMet LC; also called Anti-cMet-AA1
B9 registered a 50% effective concentration (EC50) with biotin-labeled cMet [4] of 7.25 nM.

B10: Anti-CD40 LA (antibody, human IgG1, kappa, V domains shown)
VH: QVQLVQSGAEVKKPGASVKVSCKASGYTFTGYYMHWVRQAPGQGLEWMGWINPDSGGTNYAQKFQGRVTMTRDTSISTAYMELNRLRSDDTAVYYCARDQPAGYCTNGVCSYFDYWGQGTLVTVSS
VL: DIQMTQSPSSVSASVGDRVTITCRASQGIYSWLAWYQQKPGKAPNLLIYTASTLQSGVPSRFSGSGSGTDFTLTISSLQPEDFATYYCQQANIFPLTFGGGTKVEIKR
Molecule B10 came in with an EC50 in experiment [7] of 0.189 µg/mL.

B11: Anti-CD40 LYNV (antibody, human IgG1, kappa, V domains shown)
VH: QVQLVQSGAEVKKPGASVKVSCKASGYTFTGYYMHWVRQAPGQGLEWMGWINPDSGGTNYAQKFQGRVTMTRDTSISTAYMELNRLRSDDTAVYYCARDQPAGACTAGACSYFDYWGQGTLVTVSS
VL: B10 VL
Turning to B11, in experiment [7], the binding result is on record as “no binding (tested: 0.01 µg/ml to 10 µg/ml)”.

B12: Anti-CD40 YA (antibody, human IgG1, kappa, V domains shown)
VH: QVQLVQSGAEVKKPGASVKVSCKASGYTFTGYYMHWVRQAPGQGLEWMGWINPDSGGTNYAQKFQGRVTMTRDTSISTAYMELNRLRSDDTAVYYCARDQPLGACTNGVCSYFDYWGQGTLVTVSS
VL: B10 VL
As to B12, the EC50 in experiment [7] is 0.095 µg/mL.

B13: Anti-CD40 VA (antibody, human IgG1, kappa, V domains shown)
VH: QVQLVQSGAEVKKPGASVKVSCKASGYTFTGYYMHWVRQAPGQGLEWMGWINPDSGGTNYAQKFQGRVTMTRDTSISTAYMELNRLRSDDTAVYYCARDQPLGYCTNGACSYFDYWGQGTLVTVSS
VL: B10 VL
Molecule B13 registered a concentration for a half-maximal effect (EC50) in [7] of 0.125 µg/mL. The EC50 values of the last two molecules are within 1.5-fold of each other.

B14: Anti-CD40 NA (antibody, human IgG1, kappa, V domains shown)
VH: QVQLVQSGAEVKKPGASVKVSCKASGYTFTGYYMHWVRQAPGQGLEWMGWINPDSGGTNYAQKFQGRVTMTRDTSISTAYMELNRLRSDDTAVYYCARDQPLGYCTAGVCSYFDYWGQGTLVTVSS
VL: B10 VL
In experiment [7], B14 came in with a concentration giving a half-maximal response (EC50) of 2.12 µg/mL.

B15: Anti-CD40 YNV (antibody, human IgG1, kappa, V domains shown)
VH: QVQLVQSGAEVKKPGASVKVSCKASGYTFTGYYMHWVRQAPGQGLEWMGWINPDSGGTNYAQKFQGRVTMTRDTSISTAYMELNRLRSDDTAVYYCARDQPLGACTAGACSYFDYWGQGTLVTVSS
VL: B10 VL
As for B15, the binding result in [7] is given as “no binding (tested: 0.01 µg/ml to 10 µg/ml)”.

B16: DB001 DVD-Ig (CD3 and EGFR) (bispecific antibody)
VH: QVQLQESGPGLVKPSQTLSLTCTVSGYSISSDFAWNWIRQPPGKGLEWMGYISYSGNTRYQPSLKSRITISRDTSKNQFFLKLNSVTAADTATYYCVTAGRGFPYWGQGTLVTVSSASTKGPEVQLVESGGGLVQPGGSLRLSCAASGFTFSTYAMNWVRQAPGKGLEWVGRIRSKYNNYATYYADSVKDRFTISRDDSKNTAYLQMNSLRAEDTAVYYCTRHGNFGNSYVSWFAYWGQGTLVTVSS
VL: DIQMTQSPSSMSVSVGDRVTITCHSSQDINSNIGWLQQKPGKSFKGLIYHGTNLDDGVPSRFSGSGSGTDYTLTISSLQPEDFATYYCVQYAQFPWTFGGGTKLEIKTVAAPSVFIFPPDAQVTQSPSSLSASVGDRVTITCRSSTGAVTTSNYANWVQEKPGKLFKGLIGGTNKRAPGVPSRFSGSGSGTDATLTISSLQPEDFATYFCALWYSNLWVFGGGTKVEIKR
notes: also called parental DVD-Ig
As for B16, the “Redirected Cytotoxicity (rCTL), EC50” value in experiment [8] worked out at 1.5 nM. The molecule further came in with a 50% effective concentration (EC50) with CD3 on Jurkat cells of 74 nM.

B17: Anti-human c-Met antibody 5D5 (antibody, V domains shown)
VH: B7 VH with A103V, A104S
VL: B7 VL
notes: VH and VL are those cloned from hybridoma HB-11895 (5D5.11.6); also called bivalent antibody 5D5
As for B17, in experiment [9], the “Inhibition of HGF-induced phospho-c-Met IC50 (A549 cells)” value (“Inhibition … (A549 cells)” for short) was found to be 1.4 nM, the “Inhibition of IM-95 proliferation (HGF-dependent) IC50” value (“Inhibition of IM-95 proliferation” for short) is 5.8 nM and the “Inhibition of SNU-5 proliferation (constitutively active c-Met) IC50” value (from here on “Inhibition of SNU-5 proliferation”) is greater than 600 nM. Also, a half-maximal effect with biotin-labeled cMet [10] (EC50) was put at 0.08 nM.

B18: cMet AA5 Ig (antibody, human IgG1, kappa, V domains shown)
VH: B7 VH with A103V, A104S
VL: B7 VL
notes: the intended AA5 mutation is not visible; also called Anti-cMet-AA5
As for B18, in the experiment with biotin-labeled cMet [4], a half-maximal response (EC50) required 1.81 nM.

B19: 5D5 Fab (Fab, V domains shown)
VH: B7 VH with A103V, A104S
VL: B7 VL
Consider B19, for which, in experiment [9], the “Inhibition … (A549 cells)” value came to 5.9 nM, the “Inhibition of IM-95 proliferation” value came out at 55.7 nM, the “Inhibition of SNU-5 proliferation” value was greater than 600 nM and the “Inhibition/induction of SNU-620 proliferation (constitutively active c-Met but still HGF-inducible) IC50” value (“Inhibition/induction” below) is greater than 600 nM.

B20: MetMAb1 (antibody, V domains shown)
VH: EVQLVESGGGLVQPGGSLRLSCAASGYTFTSYWLHWVRQAPGKGLEWVGMIDPSNSDTRFNPNFKDRFTISADTSKNTAYLQMNSLRAEDTAVYYCATYRSYVTPLDYWGQGTLVTVSS
VL: DIQMTQSPSSLSASVGDRVTITCKSSQSLLYTSSQKNYLAWYQQKPGKAPKLLIYWASTRESGVPSRFSGSGSGTDFTLTISSLQPEDFATYYCQQYYAYPWTFGQGTKVEIKR
notes: also called monovalent c-Met antibody MetMAb1
B20: in experiment [9], the “Inhibition … (A549 cells)” value stood at 3.8 nM, the “Inhibition of IM-95 proliferation” value was found to be 17.4 nM, the “Inhibition of SNU-5 proliferation” value was greater than 600 nM and the “Inhibition/induction” value is greater than 600 nM. In addition, a half-maximal effect in the experiment with biotin-labeled cMet [10] (EC50) was put at 0.27 nM.

B21: anti-cMet h5D5 Fab-body (antibody, human IgG1, kappa, V domains shown)
VH: B20 VH
VL: B20 VL
notes: Monovalent Fab-Fc heterodimer: LFc chain (VL-CL-linker-Fc knob) and HFc chain (VH-CH1-linker-Fc hole)
As to B21, in [9], the “Inhibition … (A549 cells)” value is 2.6 nM, the “Inhibition of IM-95 proliferation” value was 12.8 nM, the “Inhibition of SNU-5 proliferation” value worked out at 4.1 nM and the “Inhibition/induction” value was greater than 600 nM. Further, the EC50 with biotin-labeled cMet [10] was 0.24 nM.
